For one molecule, Kd results are on record in article doi:10.1101/2024.09.06.611148 (bioRxiv, 2024).

The assay deals with Alexa-647-labelled actin (UniProt P68135 1-377, Alexa-647 (Monolith NT Protein Labelling Kit RED-NHS)). The assay can be described thus: MST.

B1: recombinant HYC2 (GST-HYC2 or HYC2-6XHis) (natural protein)
chain: MDFSVKPSGGSPSPSSSTSSSTPHRFKSVTTPTATAAAVSGFSPSAAADRDPMHSWWESVSKQRSRILSLSSLLSGDSHFEDGDVTPISSLADSDRPALSLLSSRAAYSLISNSLCNPASGSGSDPLCQWLYETYLSSDPPLRLVVLSFFPLLVGMYLSRIHSSDSTSLPSLSGFEAVLLAIYAAEVKARAGKPILVHIPDLSQPSLYHTPRNGVDKSRDSNPTASVGVLSPQLEPQIAVKSTKRASIVGVGLQCYFKEISQMPAWSKLEFCKFSASWAGQDCDCKEKIDEDEDKVLALTNGFGDSSSFNGSSGRSLEIEEDFDRLAIRENEEQLSSNGGGGGVGRGVRIPLPWELFQPTLRILGHCLLSPLNTEDVKDAASNAVRSLYARASHDLNPQAILATRSLVNLDTSARTSGKTVAAETVNGSSNVNTPSKAKKPEILLASK
A word on the Kd: it is the equilibrium constant for the complex coming apart. Take B1: binding was put at a Kd of 330 ± 80 nM.
